Measured values published in article PMC7926622, “Structure–Function Relationship Study of a Secretory Amoebic Phosphatase: A Computational-Experimental Approach” (International Journal of Molecular Sciences, 2021).

System: O=P(O)(O)OP(=O)(O)O
Assay: purified protein
Settings: pH 9.0 (100 mM Tris-HCl; optimum pH), 5 mM MgSO4, 37 °C, 0.1 µM enzyme
Source text: malachite green phosphate release, Michaelis-Menten fit on rEhHAPp49

rEhHAPp49 (Entamoeba histolytica HM-1:IMSS)
Km: 12 ± 2 µM | kcat: 0.177 ± 0.00333 s⁻¹ | kcat/Km: 14700 M⁻¹ s⁻¹
